Source: patent publication US6399570B1, “Antimicrobial/endotoxin neutralizing polypeptide” (priority 1999, dated 2002)

Experiments:
E. coli 0111 = test: Time course of E. coli growth in the presence of LF polypeptides; assay type: cell-based; details: 50 μM, seven hour time course, OD 600 nm
Protocol: To investigate whether regions of the molecule involved in GAG binding activity of the 6 kDa LF polypeptide (generated from pepsin digestion) are also involved in the antimicrobial activity of the 6 kDa polypeptide of the present invention, polypeptides of various lengths corresponding to the N-terminal amino acid sequence of LF were tested for the ability to inhibit the growth of E. coli 0111. Overnight cultures were grown over a seven hour time course in the presence of 50 μM of either LF, a 33-mer corresponding to amino acids 1-33 of LF, a 26-mer corresponding to […] of LF, a 27-mer corresponding to amino acids 1-27 of LF. […] This is consistent with LF and the 33-mer inhibiting bacterial growth via different mechanisms. […] The failure of the 26-mer and the 27-mer to inhibit culture growth emphasizes the importance of retaining both clusters of basic residues, at the termini of the 33-mer, for the antimicrobial functionality of polypeptides derived from the N-terminal LF sequence.
Time course of E. coli growth in the presence of LF polypeptides. E. coli cells, clinical isolate strain 0111, were obtained from ATCC. […] Culture growth was monitored spectrophotometrically by measuring optical density at 600 nm at each indicated time point.

[1] = test system: lipid A from E. coli 0113; test: LAL assay, neutralization of lipid A endotoxin activity (FIG. 6); assay type: biochemical; details: lipid A 30 ng/ml
Protocol: The lipid A region of the LPS molecule is primarily responsible for the inflammatory and toxic effects of LPS. When LPS is released from the microbe, the lipid A portion may become more accessible. The following assays were performed to determine the potential of various amino-terminal LF polypeptides to neutralize the endotoxic activity of the lipid A portion of LPS. LF, the 6 kDa fragment of LF, LF-33, LF-27, and polymyxin B were each tested for the ability to neutralize the endotoxin activity of lipid A from E. coli 0113 (30 ng/ml), using a LAL assay. […] The endotoxin activity of the smaller fragments of LF indicate that endotoxin-neutralizing activity of these small polypeptides is masked when in the context of the intact LF molecule.

B1: LF: 80 kDa iron-binding glycoprotein, purified from human colostrum (protein, UniProt P02788 20-710, looked up)
Lactotransferrin: GRRRSVQWCAVSQPEATKCFQWQRNMRKVRGPPVSCIKRDSPIQCIQAIAENRADAVTLDGGFIYEAGLAPYKLRPVAAEVYGTERQPRTHYYAVAVVKKGGSFQLNELQGLKSCHTGLRRTAGWNVPIGTLRPFLNWTGPPEPIEAAVARFFSASCVPGADKGQFPNLCRLCAGTGENKCAFSSQEPYFSYSGAFKCLRDGAGDVAFIRESTVFEDLSDEAERDEYELLCPDNTRKPVDKFKDCHLARVPSHAVVARSVNGKEDAIWNLLRQAQEKFGKDKSPKFQLFGSPSGQKDLLFKDSAIGFSRVPPRIDSGLYLGSGYFTAIQNLRKSEEEVAARRARVVWCAVGEQELRKCNQWSGLSEGSVTCSSASTTEDCIALVLKGEADAMSLDGGYVYTAGKCGLVPVLAENYKSQQSSDPDPNCVDRPVEGYLAVAVVRRSDTSLTWNSVKGKKSCHTAVDRTAGWNIPMGLLFNQTGSCKFDEYFSQSCAPGSDPRSNLCALCIGDEQGENKCVPNSNERYYGYTGAFRCLAENAGDVAFVKDVTVLQNTDGNNNEAWAKDLKLADFALLCLDGKRKPVTEARSCHLAMAPNHAVVSRMDKVERLKQVLLHQQAKFGRNGSDCPDKFCLFQSETKNLLFNDNTECLARLHGKTTYEKYLGPQYVAGITNLKKCSTSPLLEACEFLRK
growth of E. coli 0111 cultures (E. coli 0111): transient growth suppressing effect
lipid A neutralizing activity [1]: no appreciable lipid A neutralizing activity
